From patent US20220153807A1 (published 2022) come the findings set out here.

The target of test [1] is T1, MAGE-A3 peptide on HLA-A*02:01 (human).
T1 peptide: FLWGPRALV
Described as above, co-transfected with inhibitor construct C2107, 5 uM NY-ESO-1 peptide; full-length, on cells.

Test [2] addresses T1, MAGE-A3 peptide on HLA-A*02:01. Described as above, co-transfected with inhibitor construct C2106, 5 uM NY-ESO-1 peptide; full-length, on cells.
Test [3] shares this target. The test is described as above, co-transfected with the inhibitory CAR C1761 (NY-ESO-1 scFv, LILRB1), 50 uM NY-ESO-1 peptide; reduced against CT139 alone; full-length, on cells.
The target is the same in test [4]. Nature of the test: NFAT-luciferase Jurkat cells, CT139 alone; T2 cells with titrated MAGE-A3 peptide and 50 uM NY-ESO-1 peptide; full-length, on cells.

B1: CT139, MAGE-A3 pep1 TCR (both alpha and beta chains) (TCR, V domains shown)
Valpha: AQSVDQPDAHVTLSEGASLELRCSYSYSAAPYLFWYVQYPGQSLQFLLKYITGDTVVKGTKGFEAEFRKSNSSFNLKKSPAHWSDSAKYFCALEGPDTGNYKYVFGAGTRLKVIA
Vbeta: DAGVTQTPRHEVAEKGQTIILKCEPVSGHNDLFWYRQTKIQGLELLSYFRSKSLMEDGGAFKDRFKAEMLNSSFSTLKIQPTEPRDSAVYLCASSFGTASAETLYFGSGTRLTVL
For B1, the EC50 of peptide was 100 nM in test [1], 40 nM in test [2], above 1000 nM in test [3] and 20 nM in test [4].
